Among the data in patent US20020099179A1 are Log conc. competitor (pM) values, retold here.

For the assay, the target named is human CD4 antigen (human) (UniProt P01730). Briefly: competition with F1-OKT4A tracer on HPB-ALL cells, flow cytometry. (In general: In flow cytometry, cells or beads pass a laser one at a time.)

murine OKT4A (antibody) showed a Log conc. competitor (pM) at 50% inhibition of 2.4 log pM.
The value for “chimeric OKT4A (chimeric light chain and chimeric heavy chain) (antibody)” was 2.9 log pM.
